Test results: the RNAGym collection of RNA variant scans (doi:10.1073/pnas.2313332121)

B1: TPR t1 (parent)
chain: GACCAAUCUGCCCUCAGAGCUCGAGAACAUCUUCGGAUGCAGAGGAGGCAGGCUUCGGUGGCGCGAUAGCGCCAACGUCCUCAACCUCCAAUGCAUCCCACCACAUGAUGAUGCCUGAAGAGCCUUGGUUUUUUG

Variants of: B1
Test: polymerase ribozyme fitness, log enrichment relative to wild type (log ratio); higher = more active; in vitro selection for triplet polymerase activity
Summary of the method: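 Mutant libraries were PCR-built and transcribed for each subunit of a heterodimeric triplet polymerase ribozyme and selected for one round in triplicate at −7 °C, frozen, before gel excision of extended constructs and streptavidin-bead capture. Input and output libraries were Illumina-sequenced, keeping genotypes with ≥10 input reads and ≥1 read per output. Fitness is a logarithmic ratio of genotype to wild-type enrichment, in base 2, using inverse-variance-weighted replicate averages.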

Row | Variant | polymerase ribozyme fitness (log ratio)
1 | GACCAAUCUGCCCUCAGAGCUCGAGAACAUCUUCGGAUGCAGAGGAGGCAGGCUUCGGUGGCGCGAUAGCGCCAACGUCCUCAUCCUCCAAUGCAUCCCAGCACAUGAUGAUGCCUGAAGAGCCGUGGUUUUUUG [A84U C101G U125G] | -2.42
2 | GACCAAUCUGCCCUCAGAGCACGAGAACAUCUUCGGAUGCAGAGGAGGCAGGCUUUCGUGGCGCGAUAGCGCCAACGUCCUCAACCUCCAAUGCAUCCCACCACAUGAUGAUGCCUGAAGAGCCUUGGUUUUUUG [U21A C56U G57C] | -0.599
3 | GACCAAUGUGCCCUCAGAGCUCGAGAACAUCUUCGGAUGCAGAGGAGGCAGGCUUCGGUGGCUCGAUAGCGCCAUCGUCCUCGAACUCCAAUGCAUCCCACCACAUGAUGAUGCCUGAAGAACCUUGGUUUUUUG [C8G G63U A75U A83G C85A G122A] | -0.256
4 | GACCAAUCUGCCCUCAGAGCUAGAGAACAUCUUCGGAUGCAGAGGAGGCAGGCUUCGGUAGCGCGAUAGCGCCAACGUCCUCAACCUCCAAUGCAACCCACCACAUGAUGAUGCCUGAAGAGCCUUGGUCUUUUG [C22A G60A U96A U130C] | -4.99
5 | GACCAAUCUGCCCUCAGAGCUCGAGAACAUCUUCGGAUGCAGAUGAGGCAGGCUUCGGUGGCGCGAUAGCGCCAACGUCCUCAACCUCCAAUGCAUCCCACCACAUGAUGAGGCCUGAAGAGCCUUGGUUUUUUG [G44U U112G] | -1.6
6 | GACCAAUCUGCCCUCAGAGCUCGAGAACAUCUUCGGAUGAUGAGGAGGCCGGCUUCGGUGGCGCGAUAGCGCCAACGUCCUCAACCUCCAAUGCAUCCCACCACAUGAUGAUGCCUGAAGAGCCUUGGUUUUUUG [C40A A41U A50C] | -1.94
7 | GACCAAUCUGCCCUCAGAGCUCGAGAACAUCUUCGGAUGCAGAGGAGGCAGGCUUCGGUGGCACGAUAGCGCCAACUUCCUCAACCUCCAAUGCAUCCCACCACGUGAUGAUGCCUGAAGAGCCUUGGUUUUUUG [G63A G77U A105G] | -4.78
8 | GACCAAUCGGCCCUCAGAGCUCGAGAACAUCUUCGGAUGCAGAGGAGGCAGGAUUCGGUGGCGCGAUAGCUCCAACGUCCUCAACUUCCAAUGCAUCCCUCCACAUGAUUAUGCCUGAAGAGCCUUGGUUUUUUG [U9G C53A G71U C86U A100U G110U] | -4.22
9 | GACCAAUCUGCCCUCAGAGCUCGAGAACAUCUUCGGAUGCAGAGGAGCCAGGCUUCGGUGGCGCGAUAGCCCCAACGUCCUCAACCUCCAAUGCAUCCCACCACAUGAUGAUGCCUGAAGAGCCUUGGUUUUUUG [G48C G71C] | -0.845
10 | GACCAACCUGCCUUCAGAGCUCGAGAACAUCUUCGGAUGCAGAGGAGGCAGGCUUCGGUGGCGCGAUAGCGCCAACGUCCUCAACCUCCAAUGCAUCCCACCACUUGAUGAUGCCUGAAGAGCCUUGGUUUUUUG [U7C C13U A105U] | -1.79
11 | GACCAAUCUGCCCUCAGAGCUCGAGAACAUCUUCGGAUGCAGAGGAGGCAGGCUUCGGUGGCGCGAUAGCGCCAAUGUCCCCAACCUCCAAUGCAUCCCUCCACAUGAUAAUGCCUGAAGAGCCUUGGUUUUUUG [C76U U81C A100U G110A] | -3.78
12 | GACCAAUCUGCCCUCAGAGGUCGAGAACAUCUUCGGAUGCAGAGGAGGCAGGCUUCGGUGGCGCGAUAGCGCCAACGUCCUCAACCUCCACUGCAUCCCACCACAUGAUGAUGUCUGAAGAGCCUUGGUUUUUUG [C20G A91C C114U] | -2.15
13 | GAACAAUCUGCCCUCAGAGCUCGAGAACAUCUUCGGAUGCAGAGGAGGCAGGCUUCGGUGGCGCGAUAGCGCCAACGUCCUCAACCUACAAUGCAUCCCACCACAUGAUGAUGCCUGAAGAGCCUUGGUUUUUUG [C3A C88A] | -2.21
14 | GACCAAUCUGCCCUCAGAGCUCGAGAACAUCUUCGGGUGCAGAGGAGACAGGCUUGGGUGGCGCGAUAGCUCCAACGUCCUCAACCUCCAAUGCAUCCCACCACAUGAUGAUGCCUCAAGAGCCUUGGUUUUUUG [A37G G48A C56G G71U G117C] | -6.21
15 | GACCAAUCUGCCCUCUGAGCUCGAGUACAUCUUCGGAUGCAGAGGAGGCAGGCUUCGGUGGCGCGAUAGCGCCAACGUCCUCAACCUCCAAUGCAUCCCACCACAUGAUGAUGCCUGAAGAGCCUUGGUUUUUUG [A16U A26U] | -4.8
16 | GACCAAUCUGCCCUCAGAGCUCGAGCACAUCUUCGAAUGCAGAGGAGGCAGGCUUCGGUGACGCGAUAGCGCCAACGUCCUCAACCUCCAAUGCAUCCCACCACAUGAUGAUGCCUGAAGAGCCUUGGUUUUUUG [A26C G36A G61A] | -5.9
17 | GACCAAUCUGCCCUCAGAGCUCGAGAACAUCUUCGGAUGCAGAGGAGGCAGGCUUCGGUGGCGCGAUAGCCCCAACGUCCUCAACCUCCAAUGCAUCCCACCACAUGAUGAGGCCUGAAGAGCCUUGGUUUUUUG [G71C U112G] | -1.66
18 | GACCAAUCUGCGCUCAGAGCUCGAGAACAUCUUCGGUUGCAGAGGAGGCAGGCUUCGGUGCCGCGAUAGCGCCAGCGUCCUCAACCUCCAAUGCAUCCCACCACAUGAUGAUGCCUGAAGAGCCUUGGUUUUUUG [C12G A37U G61C A75G] | -1.16
19 | GACCAAUCUGCCCUCAGAGCUCGAGAACAUCUUCGGAUGCAUAGGAGGCAGGCUUGGGUGGCGCGAUAGCGCAAACGUCCUCAACCUCCAAUGCAUCCCACCACAUGAUGAUGCCUGAAGAGCCUUGGUUUUUUG [G42U C56G C73A] | -4.4
20 | GACCAAUCUGCCCUCAGAGCUCGAGAACAUCUUCGGAUGCAGAGGAGGCAGGCUUUGGUGGCGCGAUAGCGCCAACGUCCUCAACCUCCAAUGCAUCCCACCACAUGAUGAUGCCUGAAGCGCCUUGGUUUUUUG [C56U A121C] | 1.68
21 | GACCAAUCUGCCCUCAGAGCUCGAGAACAUCUUCGGAUGCAGAGGAGGCAGGCUUCGGUGGCGCGAUAGCGCCAACGUCCUCAACCUCCAAUGCAUCCCAACACAUGAUGAUGCCUGAAGAGCCUUGGUUGUUUG [C101A U131G] | -1.9
